Data set [1] is described as follows: Oxidation stability. The data set is classed as physicochemical. The settings on record: base compound is the major oxidation product.
Data set [2] is described as follows: Light stability. It counts as physicochemical. Particulars: forms the base compound and other degradants.
A short description of data set [3]: Water solubility. The data set is classed as physicochemical.

Structures are written as SMILES.

For `COCCOCCOC(=O)OC(C)OC(=O)c1ccc(NC(=O)[C@@H]2N[C@@H](CC(C)(C)C)[C@](C#N)(c3ccc(Cl)cc3F)[C@H]2c2cccc(Cl)c2F)c(OC)c1` (stereo partly drawn) [Compound A, 4-{[(2R, 3S, 5S)-4-(4-chloro-2-fluoro-phenyl)-3-(3-chloro-2-fluoro-phenyl)-4-cyano-5-(2,2-dimethyl-propyl)-pyrrolidine-2-carbonyl]-amino}-3-methoxy-benzoic Acid 1-[2-(2-methoxy-ethoxy)-ethoxycarbonyloxy]-ethyl ester], the sensitivity to oxidation result in data set [1] is given as “vulnerable to oxidation”. Further, the sensitivity to light result in data set [2] was “light sensitive”. In data set [3], the solubility in water result is on record as “relatively more soluble in water”. In addition, the “hydrolysis kinetics in aqueous solutions” value (aqueous solutions, base compound is the major degradation product) is reported as “first-order kinetics”. The “most stable pH range” value (from stability perspective) is 3-5 pH.
Take `COc1cc(C(=O)O)ccc1NC(=O)[C@@H]1N[C@@H](CC(C)(C)C)[C@](C#N)(c2ccc(Cl)cc2F)[C@H]1c1cccc(Cl)c1F` [base compound, 4-{[(2R,3S,4R,5S)-3-(3-chloro-2-fluoro-phenyl)-4-(4-chloro-2-fluoro-phenyl)-4-cyano-5-(2,2-dimethyl-propyl)-pyrrolidine-2-carbonyl]-amino}-3-methoxy-benzoic acid]: the solubility in water entry in data set [3] is recorded as “practically water insoluble”.

The record behind these values is patent publication US20160136280A1, “STABLE INTRAVENOUS FORMULATION” (HOFFMANN-LA ROCHE INC., priority 2013, published 2016).
